These are literature values, as cited in publication PMC7550760.

In the series the target is His84 (UniProt position 104, ACRVNHVTLSQ). The following applies: monomeric native-like protein implied; not stated.

One may read the pKa as the negative logarithm of the acid dissociation constant. For the substance “beta2-microglobulin (wild type, full length) (Homo sapiens)”, the pKa was 4.1.

With “beta2-microglobulin deltaN6 variant (Homo sapiens; del1-6)”, the pKa is listed as 5.9.
